Reference: publication PMC3669411, “Characterization of Flavin-Based Fluorescent Proteins: An Emerging Class of Fluorescent Reporters” (PLoS ONE, 2013)
Values belong to the compound of their own block, whether it stands above or below them.

Tests used:
[1] = molecular target: EcFbFP, FMN-based fluorescent protein derived from the N-terminal LOV domain of Bacillus subtilis YTVA (E. coli codon-optimized gene) (Bacillus subtilis) (UniProt O34627); assay: SEC; Superdex 200 gel filtration on AKTA FPLC, calibrated with globular protein standards; 0.5 M NaCl; oligomeric state = estimated mass divided by calculated monomer mass (110 Da per amino acid); mean of duplicates
[2] = molecular target: EcFbFP, FMN-based fluorescent protein derived from the N-terminal LOV domain of Bacillus subtilis YTVA (E. coli codon-optimized gene) (Bacillus subtilis) (UniProt O34627); assay: SEC; Superdex 200 gel filtration on AKTA FPLC, calibrated with globular protein standards; 0.15 M NaCl (methods name phosphate buffered saline); oligomeric state = estimated mass divided by calculated monomer mass (110 Da per amino acid); mean of duplicates
[3] = molecular target: EcFbFP, FMN-based fluorescent protein derived from the N-terminal LOV domain of Bacillus subtilis YTVA (E. coli codon-optimized gene) (Bacillus subtilis) (UniProt O34627); assay: SEC; Superdex 200 gel filtration on AKTA FPLC, calibrated with globular protein standards; 1 M NaCl (20 mM Tris hydrochloride, 1 M NaCl, pH 8.0); oligomeric state = estimated mass divided by calculated monomer mass (110 Da per amino acid); mean of duplicates
iLOV = molecular target: T1, iLOV (Arabidopsis thaliana, UniProt P93025, S394T/S409G/C426A/I452T/F470L/M475V); assay: absorbance at […] nm vs Bradford total protein, as purified; format: binding; conditions: FMN-bound fraction of purified protein; noncovalent
T1 construct: gene PHOT2; primers give start MIEKNFVI, end LDGSDHV

[4] = molecular target: PpFbFP, FMN-based fluorescent protein from Pseudomonas putida (Pseudomonas putida) (UniProt Q88JB0); assay: SEC; Superdex 200 gel filtration on AKTA FPLC, calibrated with globular protein standards; 0.5 M NaCl; oligomeric state = estimated mass divided by calculated monomer mass (110 Da per amino acid); mean of duplicates
[5] = molecular target: PpFbFP, FMN-based fluorescent protein from Pseudomonas putida (Pseudomonas putida) (UniProt Q88JB0); assay: SEC; Superdex 200 gel filtration on AKTA FPLC, calibrated with globular protein standards; 0.15 M NaCl (methods name phosphate buffered saline); oligomeric state = estimated mass divided by calculated monomer mass (110 Da per amino acid); mean of duplicates
[6] = molecular target: PpFbFP, FMN-based fluorescent protein from Pseudomonas putida (Pseudomonas putida) (UniProt Q88JB0); assay: SEC; Superdex 200 gel filtration on AKTA FPLC, calibrated with globular protein standards; 1 M NaCl (20 mM Tris hydrochloride, 1 M NaCl, pH 8.0); oligomeric state = estimated mass divided by calculated monomer mass (110 Da per amino acid); mean of duplicates

T1 sequence (P93025 387-496 S394T/S409G/C426A/I452T/F470L/M475V): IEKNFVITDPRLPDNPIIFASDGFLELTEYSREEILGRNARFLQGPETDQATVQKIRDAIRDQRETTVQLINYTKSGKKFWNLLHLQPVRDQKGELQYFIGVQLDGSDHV

stoichiometry N [1]: 1.7
stoichiometry N [2]: 1.9
stoichiometry N [3]: 1.6
Compound: EcFbFP, FMN-based fluorescent protein derived from the N-terminal LOV domain of Bacillus subtilis YTVA (E. coli codon-optimized gene) (from UniProt O34627 20-147) (domain or fragment)

Fholo (iLOV): 0.39±0.01
Compound: Cc1cc2nc3c(=O)[nH]c(=O)nc-3n(C[C@H](O)[C@H](O)[C@H](O)COP(=O)(O)O)c2cc1C [FMN]

stoichiometry N [4]: 1.7
stoichiometry N [5]: 1.9
stoichiometry N [6]: 1.5
Compound: PpFbFP, FMN-based fluorescent protein from Pseudomonas putida (from UniProt Q88JB0 1-151) (natural protein)
